# B1: Wnt9B: Recombinant Wnt peptide purchased from R&D systems (protein, UniProt O14905 23-357, looked up)
# Protein Wnt-9b: SYFGLTGREVLTPFPGLGTAAAPAQGGAHLKQCDLLKLSRRQKQLCRREPGLAETLRDAAHLGLLECQFQFRHERWNCSLEGRMGLLKRGFKETAFLYAVSSAALTHTLARACSAGRMERCTCDDSPGLESRQAWQWGVCGDNLKYSTKFLSNFLGSKRGNKDLRARADAHNTHVGIKAVKSGLRTTCKCHGVSGSCAVRTCWKQLSPFRETGQVLKLRYDSAVKVSSATNEALGRLELWAPARQGSLTKGLAPRSGDLVYMEDSPSFCRPSKYSPGTAGRVCSREASCSSLCCGRGYDTQSRLVAFSCHCQVQWCCYVECQQCVQEELVYTCKH
# B2: Wnt5A: Recombinant Wnt peptide purchased from R&D systems (protein, UniProt P41221 62-380, looked up)
# Protein Wnt-5a: IIGAQPLCSQLAGLSQGQKKLCHLYQDHMQYIGEGAKTGIKECQYQFRHRRWNCSTVDNTSVFGRVMQIGSRETAFTYAVSAAGVVNAMSRACREGELSTCGCSRAARPKDLPRDWLWGGCGDNIDYGYRFAKEFVDARERERIHAKGSYESARILMNLHNNEAGRRTVYNLADVACKCHGVSGSCSLKTCWLQLADFRKVGDALKEKYDSAAAMRLNSRGKLVQVNSRFNSPTTQDLVYIDPSPDYCVRNESTGSLGTQGRLCNKTSEGMDGCELMCCGRGYDQFKTVQTERCHCKFHWCCYVKCKKCTEIVDQFVCK
# Assays:
# [1] = test system: PC3 prostate cancer cell line; assay: Live [Ca2+]i imaging (Fluo4/FuraRed ratio) after addition of Wnt ligand; format: cell-based; details: PC3 cells; for intracellular calcium mobilization ([Ca2+]i release) in response to Wnt ligand: 100 ng/ml Wnt ligand peptide, ratio of Fluo4/Fura Red; for dependence of time constants (dwell time) on Wnt ligand concentration / co-operativity: three concentrations of each Wnt ligand, first-order fit; for rise and fall time of [Ca2+]i release: Wnt peptide 100 ng/ml
# Method: The imaging protocol was developed in the inventor's laboratory and has been described in detail, elsewhere (Wang at al., (2010) PLoS ONE 5, e10456). Briefly, 100000-200000 PC3, MCF7, 253J or Cos 7 cells were plated on 35 mm FluoroDish (WPI) and grown for 48 h; calcium indicators Fluo-4 (Invitrogen) and FuraRed (Invitrogen) at 1 ng/ml were added to FluoroDish containing only 1 ml of culture medium and incubated for 15-20 min at 37° C. The culture medium was removed and washed (×2) and replaced with 1 ml PBS. Live cell calcium Imaging was performed on an Olympus FluoView FV 1000 confocal microscope (Olympus KeyMed) equipped with a 20× dry objective (numerical aperture=0.75). Calcium indicators were excited with an argon laser line (488 nm) and emissions recorded in the green channel (500-560 nm) for Fluo-4 and red channel (600-700 nm) for FuraRed after addition of vehicle control (PBS) or Wnt X (30-600 ng/ml). Images were acquired every 1.1 or 2.2 seconds for up to 600-800s; image and data acquisition was performed using FluoView 1000 software (Olympus, UK). Fluorescent intensity was measured and data exported as a tab delimited file for further analysis using a spreadsheet. All imaging experiments were performed in duplicate; intracellular calcium at 100 ng/ml was measured in at least 3-12 different passages (passage numbers 25 to 37) of cell line for each Wnt ligand. Wnt 11 was tested in at least 5 different passages at 3 different concentrations. To test if the Wnt activated calcium release was from [Ca^2+]i stores, in some cases PC3 cells, loaded with calcium dyes, were incubated with 1-5 μM of thapsigargin (Sigma, UK), resuspended in dimethyl sulfoxide (DMSO), for 20 min at 37° C., prior to addition of Wnt ligand and live calcium imaging (as described above).
# The experiments were performed using 35 mm, glass bottom, FluoroDish containing 1 ml PBS, at 37° C., to which ligands were added at desired concentration. In a static, non-superfusing assay system there is a lag time before the start of a response, in this case an increase in the intensity of the Fluo4 signal due to the release of free calcium. To measure the diffusion constant under these conditions we used Pontamine Sky Blue (Sigma Aldridge), which fluoresces in the red spectrum with 488 nm excitation, using standard practice for adding ligands; the diffusion constant was measured to be 23.3±2.1 μm·s^−1 (means±S.E.M, n=8). The calcium wave, in response to Wnt ligands, travelled across the FluoroDish.
# After image acquisition, regions of interest (ROI) were drawn over individual PC3 cells (up to 25) in a single frame and calcium intensity measurements were made using FluoView 1000 software (Olympus, UK). The measurements were exported as a tab delimited file into a spreadsheet for further analysis and Fluo4/Fura Red ratios were calculated. The waveform, a product of the ratio of Fluo4 and FuraRed over the period of measurement was used to measure the kinetics of the activation of [Ca^2+]i release in PC3 cells, in response to different Wnt ligands. The time constants (rise, dwell and fall times) were calculated by first fitting the Fluo4/FuraRed ratio to a single Gaussian function (Origin Lab Corp., MA); a lower (10%) and upper (90%) amplitude thresholding method was then used to calculate the time constants (s). Statistical significance was calculated using Mann Whitney U test.
# [2] = test system: β-catenin translocation to the nucleus; assay: β-catenin immunocytochemistry, 253J; format: cell-based, human; details: 253J bladder cancer cell line
# Method: Immunostaining was performed in two different laboratories, independently with the experimenter blind to the identity of the treatment. Either cells used in FluoroDish, post [Ca^2+]i experiments using dyes (see above) or grown in 8 well chamber glass slides (Lab Tek II, Nunc) were used. For Wnt ligand treatment, the culture medium replaced with PBS (without calcium) at 37° C. The experiments were replicated for Wnt ligand or vehicle control as described for [Ca^2+]i measurements. Briefly, Wnt ligands were added and chamber slides incubated at 37° C. for up to 20 min. Chamber wells were washed 3× with 0.5 ml PBS and cells were fixed with 0.5 ml 4% formalin for 30 min at 4° C. Cells were washed 3× with ice cold PBS and stored in 0.5 ml PBS at 4° C. for immunostaining. In some experiments PC3 cells were treated with thaspsigargin as described above.
# For immunostaining cells were washed twice for 5 minutes in TBST (20 mM Tris pH 7.4, 0.9% NaCl, 0.1% Tween 20, Sigma). Cells were then incubated in 20% normal goat serum (NGS)/TBST for 30 min at room temperature, the chambers were drained and cells were incubated with mouse anti-β-catenin (ab22656, Abcam, UK) at 1:500 dilution in NGS/TBST overnight at 4° C. […]
# Fluorescence immunocytochemical staining for β-catenin expression in cell lines was imaged using Olympus Fluoview 1000 Confocal Microscope (Olympus KeyMed) mounted on an Olympus IX81 inverted microscope using a 20×0.7 NA or 40×1.0 NA dry objective with a zoom of ×3.4′,6-diamidino-2-phenylindole (DAPI, nuclear counterstain) was excited at 405 nm with an emission of 415-500 nm; Cy3 (β-catenin label) signal was excited at 561 nm with an emission spectrum between 570-670 nm. […]
# Nuclear co-localization of β-catenin was calculated by importing FV files for untreated, control or treated cells, into colocalization plugin of Fiji software (http://fiji.sc/Fiji) for Cy3 (β-catenin) and DAPI (nuclear) signals. […] Statistical significance between untreated and treated cells was calculated using Mann Whitney U test.
Molecule,intracellular calcium mobilization ([Ca2+]i release) in response to Wnt ligand [1],dependence of time constants (dwell time) on Wnt ligand concentration / co-operativity [1],β-catenin translocation into the nucleus after Wnt treatment [2],time for thapsigargin-evoked calcium transient to decline to baseline ([1]; thapsigargin 5 μM final concentration),rise and fall time of [Ca2+]i release [1],"K1/2 (half-maximal concentration), Michaelis-Menten kinetics of dwell time of [Ca2+]i release ([1]; estimated from fit of dwell time vs Wnt concentration)"
Wnt10B: Recombinant Wnt peptide purchased from R&D systems,induce intracellular calcium mobilization,negative co-operativity,β-catenin translocation into the nucleus,,,
"C/C=C(/C)C(=O)O[C@H]1C(C)=C2[C@H]([C@@H]1OC(=O)CCCCCCC)[C@@](C)(OC(C)=O)C[C@H](OC(=O)CCC)[C@@]1(O)[C@H]2OC(=O)[C@@]1(C)O [thapsigargin, reference compound]",,,,≤ 120 s,,
B1,induce intracellular calcium mobilization,negative co-operativity,β-catenin translocation into the nucleus,,slowest,
B2,induce intracellular calcium mobilization,classical Michaelis-Menten kinetics,β-catenin translocation into the nucleus,,shortest,67 ng/mL

# — US20160271157A1, “BETA-CATENIN” (UCL BUSINESS PLC, priority 2013, published 2016)
